Measured values: PMC10011572 (Nature Communications, 2023)

How the values were obtained:
[1] = target: zanidatamab precursor (human); assay: SPR; zani precursor captured on immobilised goat anti-human Fc (CM5, Biacore T200), HER2 ECD 3.75-60 nM flowed; single-cycle, 1:1 Langmuir fit; apparent; capture/MW 4.911623982 RU/kDa
[2] = target: zanidatamab precursor (human); assay: SPR; zani precursor captured on immobilised goat anti-human Fc (CM5, Biacore T200), HER2 ECD 3.75-60 nM flowed; single-cycle, 1:1 Langmuir fit; apparent; capture/MW 3.817573146 RU/kDa
[3] = target: zanidatamab (human); assay: SPR; zani captured on immobilised goat anti-human Fc (CM5, Biacore T200), HER2 ECD 3.75-60 nM flowed; single-cycle, 1:1 Langmuir fit; apparent; capture/MW 1.306405834 RU/kDa
[4] = target: zanidatamab precursor (human); assay: SPR; zani precursor captured on immobilised goat anti-human Fc (CM5, Biacore T200), HER2 ECD 3.75-60 nM flowed; single-cycle, 1:1 Langmuir fit; apparent; capture/MW 0.790725842 RU/kDa
[5] = target: zanidatamab (human); assay: SPR; zani captured on immobilised goat anti-human Fc (CM5, Biacore T200), HER2 ECD 3.75-60 nM flowed; single-cycle, 1:1 Langmuir fit; apparent; capture/MW 2.37652122 RU/kDa
[6] = target: zanidatamab (human); assay: SPR; zani captured on immobilised goat anti-human Fc (CM5, Biacore T200), HER2 ECD 3.75-60 nM flowed; single-cycle, 1:1 Langmuir fit; apparent; capture/MW 2.080156929 RU/kDa
[7] = target: Zanidatamab (human); assay: SPR; Biacore T200; goat anti-human Fc polyclonal Ab amine-coupled to about 2000 RU on a CM5 chip captures the antibody; increasing concentrations of HER2 ECD injected; single-cycle kinetics, 1:1 binding model; KD of zanidatamab called apparent
[8] = target: zanidatamab precursor (human); assay: SPR; zani precursor captured on immobilised goat anti-human Fc (CM5, Biacore T200), HER2 ECD 3.75-60 nM flowed; single-cycle, 1:1 Langmuir fit; apparent; capture/MW 0.083234299 RU/kDa
[9] = target: zanidatamab precursor (human); assay: SPR; zani precursor captured on immobilised goat anti-human Fc (CM5, Biacore T200), HER2 ECD 3.75-60 nM flowed; single-cycle, 1:1 Langmuir fit; apparent; capture/MW 1.970411967 RU/kDa
[10] = target: zanidatamab precursor (human); assay: SPR; zani precursor captured on immobilised goat anti-human Fc (CM5, Biacore T200), HER2 ECD 3.75-60 nM flowed; single-cycle, 1:1 Langmuir fit; apparent; capture/MW 0.571435477 RU/kDa
[11] = target: zanidatamab precursor (human); assay: SPR; zani precursor captured on immobilised goat anti-human Fc (CM5, Biacore T200), HER2 ECD 3.75-60 nM flowed; single-cycle, 1:1 Langmuir fit; apparent; capture/MW 2.00002417 RU/kDa
[12] = target: zanidatamab (human); assay: SPR; zani captured on immobilised goat anti-human Fc (CM5, Biacore T200), HER2 ECD 3.75-60 nM flowed; single-cycle, 1:1 Langmuir fit; apparent; capture/MW 0.62396698 RU/kDa
[13] = target: zanidatamab precursor (human); assay: SPR; zani precursor captured on immobilised goat anti-human Fc (CM5, Biacore T200), HER2 ECD 3.75-60 nM flowed; single-cycle, 1:1 Langmuir fit; apparent; capture/MW 1.267722403 RU/kDa
[14] = target: zanidatamab precursor (human); assay: SPR; zani precursor captured on immobilised goat anti-human Fc (CM5, Biacore T200), HER2 ECD 3.75-60 nM flowed; single-cycle, 1:1 Langmuir fit; apparent; capture/MW 4.555477221 RU/kDa
[15] = target: zanidatamab precursor (human); assay: SPR; zani precursor captured on immobilised goat anti-human Fc (CM5, Biacore T200), HER2 ECD 3.75-60 nM flowed; single-cycle, 1:1 Langmuir fit; apparent; capture/MW 3.104479294 RU/kDa
[16] = target: zanidatamab precursor (human); assay: SPR; zani precursor captured on immobilised goat anti-human Fc (CM5, Biacore T200), HER2 ECD 3.75-60 nM flowed; single-cycle, 1:1 Langmuir fit; apparent; capture/MW 0.703489894 RU/kDa
[17] = target: zanidatamab (human); assay: SPR; zani captured on immobilised goat anti-human Fc (CM5, Biacore T200), HER2 ECD 3.75-60 nM flowed; single-cycle, 1:1 Langmuir fit; apparent; capture/MW 0.793775709 RU/kDa
[18] = target: zanidatamab (human); assay: SPR; zani captured on immobilised goat anti-human Fc (CM5, Biacore T200), HER2 ECD 3.75-60 nM flowed; single-cycle, 1:1 Langmuir fit; apparent; capture/MW 0.273135738 RU/kDa
[19] = target: zanidatamab precursor (human); assay: SPR; zani precursor captured on immobilised goat anti-human Fc (CM5, Biacore T200), HER2 ECD 3.75-60 nM flowed; single-cycle, 1:1 Langmuir fit; apparent; capture/MW 2.899594865 RU/kDa
[20] = target: zanidatamab precursor (human); assay: SPR; zani precursor captured on immobilised goat anti-human Fc (CM5, Biacore T200), HER2 ECD 3.75-60 nM flowed; single-cycle, 1:1 Langmuir fit; apparent; capture/MW 0.356947091 RU/kDa
[21] = target: zanidatamab precursor (human); assay: SPR; zani precursor captured on immobilised goat anti-human Fc (CM5, Biacore T200), HER2 ECD 3.75-60 nM flowed; single-cycle, 1:1 Langmuir fit; apparent; capture/MW 0.312928952 RU/kDa
[22] = target: Zanidatamab (human); assay: AUC; sedimentation velocity, HER2 ECD and antibody equimolar (1x), 1 mg/mL total protein in DPBS, 20 °C, c(s) model
[23] = target: zanidatamab (human); assay: SPR; zani captured on immobilised goat anti-human Fc (CM5, Biacore T200), HER2 ECD 3.75-60 nM flowed; single-cycle, 1:1 Langmuir fit; apparent; capture/MW 1.217496547 RU/kDa
[24] = target: zanidatamab precursor (human); assay: SPR; zani precursor captured on immobilised goat anti-human Fc (CM5, Biacore T200), HER2 ECD 3.75-60 nM flowed; single-cycle, 1:1 Langmuir fit; apparent; capture/MW 1.154875901 RU/kDa
[25] = target: zanidatamab precursor (human); assay: SPR; zani precursor captured on immobilised goat anti-human Fc (CM5, Biacore T200), HER2 ECD 3.75-60 nM flowed; single-cycle, 1:1 Langmuir fit; apparent; capture/MW 0.164867939 RU/kDa
[26] = target: zanidatamab precursor (human); assay: SPR; zani precursor captured on immobilised goat anti-human Fc (CM5, Biacore T200), HER2 ECD 3.75-60 nM flowed; single-cycle, 1:1 Langmuir fit; apparent; capture/MW 1.008415548 RU/kDa
[27] = target: zanidatamab precursor (human); assay: SPR; zani precursor captured on immobilised goat anti-human Fc (CM5, Biacore T200), HER2 ECD 3.75-60 nM flowed; single-cycle, 1:1 Langmuir fit; apparent; capture/MW 4.096087916 RU/kDa
[28] = target: zanidatamab precursor (human); assay: SPR; zani precursor captured on immobilised goat anti-human Fc (CM5, Biacore T200), HER2 ECD 3.75-60 nM flowed; single-cycle, 1:1 Langmuir fit; apparent; capture/MW 0.555428881 RU/kDa
[29] = target: zanidatamab precursor (human); assay: SPR; zani precursor captured on immobilised goat anti-human Fc (CM5, Biacore T200), HER2 ECD 3.75-60 nM flowed; single-cycle, 1:1 Langmuir fit; apparent; capture/MW 0.365750719 RU/kDa
[30] = target: zanidatamab (human); assay: SPR; zani captured on immobilised goat anti-human Fc (CM5, Biacore T200), HER2 ECD 3.75-60 nM flowed; single-cycle, 1:1 Langmuir fit; apparent; capture/MW 0.484595665 RU/kDa
[31] = target: zanidatamab (human); assay: SPR; zani captured on immobilised goat anti-human Fc (CM5, Biacore T200), HER2 ECD 3.75-60 nM flowed; single-cycle, 1:1 Langmuir fit; apparent; capture/MW 0.856252506 RU/kDa
[32] = target: zanidatamab precursor (human); assay: SPR; zani precursor captured on immobilised goat anti-human Fc (CM5, Biacore T200), HER2 ECD 3.75-60 nM flowed; single-cycle, 1:1 Langmuir fit; apparent; capture/MW 0.423374464 RU/kDa
[33] = target: zanidatamab precursor (human); assay: SPR; zani precursor captured on immobilised goat anti-human Fc (CM5, Biacore T200), HER2 ECD 3.75-60 nM flowed; single-cycle, 1:1 Langmuir fit; apparent; capture/MW 2.483423369 RU/kDa
[34] = target: zanidatamab precursor (human); assay: SPR; zani precursor captured on immobilised goat anti-human Fc (CM5, Biacore T200), HER2 ECD 3.75-60 nM flowed; single-cycle, 1:1 Langmuir fit; apparent; capture/MW 2.11927331 RU/kDa
[35] = target: T1, Recombinant human HER2 ECD (Homo sapiens, UniProt P04626); assay: SPR; Biacore T200; goat anti-human Fc polyclonal Ab amine-coupled to about 2000 RU on a CM5 chip captures the antibody; increasing concentrations of HER2 ECD injected; single-cycle kinetics, 1:1 binding model; KD of zanidatamab called apparent; details: both partners purified
T1 construct: human epidermal growth factor receptor 2 (HER2), extracellular domain, recombinant; printed mass 72 kDa; The supplier is named for the SPR only; source: bought: Acro Inc

## Recombinant human HER2 ECD (from UniProt P04626 23-652) (domain or fragment)
[1]
  Kd: 0.0358 nM
[2]
  Kd: 0.136 nM
[3]
  Kd: 0.0913 nM
[4]
  Kd: 0.992 nM
[5]
  Kd: 0.0801 nM
[6]
  Kd: 0.0989 nM
[7]
  Kd: 0.74 nM
[8]
  Kd: 0.89 nM
[9]
  Kd: 0.46 nM
[10]
  Kd: 0.687 nM
[11]
  Kd: 0.152 nM
[12]
  Kd: 0.169 nM
[13]
  Kd: 0.654 nM
[14]
  Kd: 0.0468 nM
[15]
  Kd: 0.311 nM
[16]
  Kd: 0.992 nM
[17]
  Kd: 0.0997 nM
[18]
  Kd: 0.149 nM
[19]
  Kd: 0.318 nM
[20]
  Kd: 0.927 nM
[21]
  Kd: 0.663 nM
[22]
  percent of the total peak area in multimeric complexes: 95%
[23]
  Kd: 0.0932 nM
[24]
  Kd: 0.743 nM
[25]
  Kd: 0.879 nM
[26]
  Kd: 0.49 nM
[27]
  Kd: 0.119 nM
[28]
  Kd: 0.679 nM
[29]
  Kd: 1.12 nM
[30]
  Kd: 0.175 nM
[31]
  Kd: 0.174 nM
[32]
  Kd: 2.02 nM
[33]
  Kd: 0.0931 nM
[34]
  Kd: 0.475 nM

B1: Monovalent one-armed Ab (OAA) with the affinity-improved anti-HER2-ECD2 Fab (antibody, V domains shown)
VH: EVQLVESGGGLVQPGGSLRLSCAASGFTFADYTMDWVRQAPGKGLEWVGDVNPNSGGSIYNQRFKGRFTFSVDRSKNTLYLQMNSLRAEDTAVYYCARNLGPSFYFDYWGQGTLVTVSS
VL: DIQMTQSPSSLSASVGDRVTITCKASQDVSIGVAWYQQKPGKAPKLLIYSASYRYTGVPSRFSGSGSGTDFTLTISSLQPEDFATYYCQQYYIYPATFGQGTKVEIK
notes: as the light chain of m3; also called one variant; copies: + +
[35]
  Kd: 1.7 nM
